Measurements from patent US20250302974A1, “LECTIN-DRUG CONJUGATES” (UNICHEM LABORATORIES LIMITED, priority 2021, published 2025).

Experiments:
Test in all cases: Cytotoxic effect by MTT assay, 48 h
PA-1 Ovary = conditions: for Percent cytotoxicity wrt control: 48 h
Description: (§1) Cells were treated with Test Items at various concentrations (0.0001 μM-10 μM) for 48 h. The cells corresponding to Positive Control group were treated with Doxorubicin at a concentration ranging from 0.1 μM-100 μM. The Untreated cells were used as Control. After 48 h of incubation, the effect of Test Items on cytotoxicity of cells was determined by MTT assay, the plates were taken out and 20 μl of 5 mg/m1 of MTT 3-(4,5-dimethythiazol-2-yl)-2,5-diphenyl tetrazolium bromide solution was added to all the wells. Cells were incubated for 3 h at 37° C. The supernatant was aspirated. 150 μl of DMSO was added to each well to dissolve formazan crystals. The absorbance of each well was then read at 540 nm using Synergy HT micro plate reader.
(§2) The % Cytotoxicity was calculated using the formula:
(§3) Where, X=Absorbance of cells treated with Test Item; R=Absorbance of Control cells (Untreated cells maintained in growth medium only).
(§4) Selectivity Index was calculated using the formula:
(§5) SI=IC50 in Normal cell/IC50 in cancer cell.
(§6) Activity scores of the Selective Index values were categorized as: • Not selective (SI value ≤1) • Moderately selective (1<SI value <5) • Selective (SI value ≥5)

T24 Bladder = conditions: for Percent cytotoxicity wrt control: 48 h
Description: as §1, §2, §3, §4, §5, §6

HT29 Colon = conditions: for Percent cytotoxicity wrt control: 48 h
Description: as §1, §2, §3, §4, §5, §6

MG-63 Bone = conditions: for Percent cytotoxicity wrt control: 48 h
Description: as §1, §2, §3, §4, §5, §6

AGS Stomach = conditions: for Percent cytotoxicity wrt control: AGS, 48 h
Description: as §1, §2, §3, §4, §5, §6

MDA-MB-231 Breast = conditions: for Percent cytotoxicity wrt control: 48 h
Description: as §1, §2, §3, §4, §5, §6

B1: SEQ ID NO: 2: recombinant variant of the S. rolfsii lectin amino acid sequence (reported as Rec-2 in WO2010/095143) (protein)
chain: TYKITVRVYQTNPDAFFHPVEKTVWKYANGGTWTITDDQHVLTMGGSGTSGTLRFHADNGESFTATFGVHNYKRWCDIVTNLAADETGMVINQQYYSQKNREEARERQLSNYQVKNAKGRNFQIVYTEAEGNDLHANLIIG
In the case of B1, the “Percent cytotoxicity wrt control” value (PA-1 Ovary; PA-1, 0.0001 μM) is reported as 0.9%, the “Percent cytotoxicity wrt control” value (PA-1 Ovary; PA-1, 0.001 μM) is reported as −5.6% and the “Percent cytotoxicity wrt control” value (PA-1 Ovary; PA-1, 0.01 μM) is reported as 7.4%. For the same molecule, the “Percent cytotoxicity wrt control” value (PA-1 Ovary; PA-1, 0.1 μM) was 4.5%, the “Percent cytotoxicity wrt control” value (PA-1 Ovary; PA-1, 1 μM) was 51% and the “Percent cytotoxicity wrt control” value (PA-1 Ovary; PA-1, 10 μM) was 72.2%. For the same molecule, the IC50 (PA-1 Ovary; read-out: IC50 Values, PA-1 Ovary, after 48 h of treatment) was 1540 nM, the “Percent cytotoxicity wrt control” value (T24 Bladder; T24, 0.0001 μM) was 9.7% and the “Percent cytotoxicity wrt control” value (T24 Bladder; T24, 0.001 μM) was 11.1%. For the same molecule, the “Percent cytotoxicity wrt control” value (T24 Bladder; T24, 0.01 μM) was 9.1%, the “Percent cytotoxicity wrt control” value (T24 Bladder; T24, 0.1 μM) was 10.5% and the “Percent cytotoxicity wrt control” value (T24 Bladder; T24, 1 μM) was 43.1%. For the same molecule, the “Percent cytotoxicity wrt control” value (T24 Bladder; T24, 10 μM) was 68.7%, the IC50 (T24 Bladder; read-out: IC50 Values, T24 Bladder, after 48 h of treatment) was 2130 nM and the “Percent cytotoxicity wrt control” value (HT29 Colon; HT29, 0.0001 μM) was 14%. For the same molecule, the “Percent cytotoxicity wrt control” value (HT29 Colon; HT29, 0.001 μM) was 16.6%, the “Percent cytotoxicity wrt control” value (HT29 Colon; HT29, 0.01 μM) was 22.5% and the “Percent cytotoxicity wrt control” value (HT29 Colon; HT29, 0.1 μM) was 24.7%. For the same molecule, the “Percent cytotoxicity wrt control” value (HT29 Colon; HT29, 1 μM) was 35.4%, the “Percent cytotoxicity wrt control” value (HT29 Colon; HT29, 10 μM) was 54.1% and the IC50 (HT29 Colon; read-out: IC50 Values, HT29 Colon, after 48 h of treatment) was 9390 nM. The “Percent cytotoxicity wrt control” value (MG-63 Bone; MG-63, 0.0001 μM) was 27%, the “Percent cytotoxicity wrt control” value (MG-63 Bone; MG-63, 0.001 μM) was 38.7% and the “Percent cytotoxicity wrt control” value (MG-63 Bone; MG-63, 0.01 μM) was 50.4%. For the same molecule, the “Percent cytotoxicity wrt control” value (MG-63 Bone; MG-63, 0.1 μM) was 59.1%, the “Percent cytotoxicity wrt control” value (MG-63 Bone; MG-63, 1 μM) was 72.3% and the “Percent cytotoxicity wrt control” value (MG-63 Bone; MG-63, 10 μM) was 74%. The IC50 (MG-63 Bone; read-out: IC50 Values, MG-63 Bone, after 48 h of treatment) was 12.7 nM, the “Percent cytotoxicity wrt control” value (AGS Stomach; 0.0001 μM) was 7.8% and the “Percent cytotoxicity wrt control” value (AGS Stomach; 0.001 μM) was 8.5%. The “Percent cytotoxicity wrt control” value (AGS Stomach; 0.01 μM) was 15.9%, the “Percent cytotoxicity wrt control” value (AGS Stomach; 0.1 μM) was 37% and the “Percent cytotoxicity wrt control” value (AGS Stomach; 1 μM) was 49.9%. The “Percent cytotoxicity wrt control” value (AGS Stomach; 10 μM) was 57.2%, the IC50 (AGS Stomach; read-out: IC50 Values, AGS Stomach, after 48 h of treatment) was 1720 nM and the “Percent cytotoxicity wrt control” value (MDA-MB-231 Breast; MDA-MB-231, 0.0001 μM) was 13.7%. For the same molecule, the “Percent cytotoxicity wrt control” value (MDA-MB-231 Breast; MDA-MB-231, 0.001 μM) was 15.1%, the “Percent cytotoxicity wrt control” value (MDA-MB-231 Breast; MDA-MB-231, 0.01 μM) was 16.2% and the “Percent cytotoxicity wrt control” value (MDA-MB-231 Breast; MDA-MB-231, 0.1 μM) was 28.1%. The “Percent cytotoxicity wrt control” value (MDA-MB-231 Breast; MDA-MB-231, 1 μM) was 48.5%, the “Percent cytotoxicity wrt control” value (MDA-MB-231 Breast; MDA-MB-231, 10 μM) was 66.4% and the IC50 (MDA-MB-231 Breast; read-out: IC50 Values, MDA-MB-231 Breast, after 48 h of treatment) was 1350 nM.
